The source of these data is the RNAGym collection of RNA variant scans (doi:10.7554/elife.80360).

B1: HDV Ribozyme (parent)
chain: GGCCGGCAUGGUCCCAGCCUCCUCGCUGGCGCCGGCUGGGCAACAUUCCGAGGGGACCGUCCCCUCGGUAAUGGCGAAUGGGACCCA

Variants of B1 are the subject of the data set. Nature of the data set: self-cleavage, relative activity (ratio to wild type); higher = more cleavage; co-transcriptional.
As for GGCCGGCAUGGUCCCAGCCUCCUCGCUGGCGCCGGCUGGGCAACAUUCCGAGGGGACCGUCCCCUCGGUAAUGGCGAAUCGGGCCCA [G80C A83G], the self-cleavage worked out at 0.102.

In the case of GGCCGGCAUGGUCCCAGCCUCCUCGCUGGCGCCGGCUGGGCAACAUUCCGAGGGGACCGUCCCCUCGGUAAUGGCGAAAGGGACCAA [U79A C86A], the self-cleavage was 0.688.

GGCCGGCAUGGUCCCAGCCUCCUCGCUGGCGCCGGCUGGGCAACAUUCCGAGGGGACCGUCCCCUCGGUAAUGGCGAAGGGGACUCA [U79G C85U]: the self-cleavage worked out at 0.705.

For the variant GGCCGGCAUGGUCCCAGCCUCCUCGCUGGCGCCGGCUGGGCAACAUUCCGAGGGGACCGUCCCCUCGGUAAUGGCGAAGGGGACGCA [U79G C85G], the self-cleavage amounted to 0.575.

As to GGCCGGCAUGGUCCCAGCCUCCUCGCUGGCGCCGGCUGGGCAACAUUCCGAGGGGACCGUCCCCUCGGUAAUGGCGAAGGGGGCCCA [U79G A83G], the self-cleavage came to 0.138.

GGCCGGCAUGGUCCCAGCCUCCUCGCUGGCGCCGGCUGGGCAACAUUCCGAGGGGACCGUCCCCUCGGUAAUGGCGAAUCGGACCCA [G80C]: the self-cleavage worked out at 0.187.

GGCCGGCAUGGUCCCAGCCUCCUCGCUGGCGCCGGCUGGGCAACAUUCCGAGGGGACCGUCCCCUCGGUAAUGGCGAAUAGGACCCA [G80A]: the self-cleavage amounted to 0.348.

As to GGCCGGCAUGGUCCCAGCCUCCUCGCUGGCGCCGGCUGGGCAACAUUCCGAGGGGACCGUCCCCUCGGUAAUGGCGAAAGGGGCCCA [U79A A83G], the self-cleavage was determined as 0.375.

Take GGCCGGCAUGGUCCCAGCCUCCUCGCUGGCGCCGGCUGGGCAACAUUCCGAGGGGACCGUCCCCUCGGUAAUGGCGAACGGGACCCU [U79C A87U]: the self-cleavage amounted to 0.373.

Regarding GGCCGGCAUGGUCCCAGCCUCCUCGCUGGCGCCGGCUGGGCAACAUUCCGAGGGGACCGUCCCCUCGGUAAUGGCGAACGGGACCCC [U79C A87C], the self-cleavage worked out at 0.35.

Consider GGCCGGCAUGGUCCCAGCCUCCUCGCUGGCGCCGGCUGGGCAACAUUCCGAGGGGACCGUCCCCUCGGUAAUGGCGAACGGGACCCG [U79C A87G], for which the self-cleavage came out at 0.47.

Turning to GGCCGGCAUGGUCCCAGCCUCCUCGCUGGCGCCGGCUGGGCAACAUUCCGAGGGGACCGUCCCCUCGGUAAUGGCGAAGGGGACCUA [U79G C86U], the self-cleavage amounted to 0.739.

For the variant GGCCGGCAUGGUCCCAGCCUCCUCGCUGGCGCCGGCUGGGCAACAUUCCGAGGGGACCGUCCCCUCGGUAAUGGCGAAGGGGACCGA [U79G C86G], the self-cleavage came to 0.712.

Consider GGCCGGCAUGGUCCCAGCCUCCUCGCUGGCGCCGGCUGGGCAACAUUCCGAGGGGACCGUCCCCUCGGUAAUGGCGAAAGGGACUCA [U79A C85U], for which the self-cleavage stood at 0.855.

With GGCCGGCAUGGUCCCAGCCUCCUCGCUGGCGCCGGCUGGGCAACAUUCCGAGGGGACCGUCCCCUCGGUAAUGGCGAAUAGGACGCA [G80A C85G], the self-cleavage came out at 0.312.

As to GGCCGGCAUGGUCCCAGCCUCCUCGCUGGCGCCGGCUGGGCAACAUUCCGAGGGGACCGUCCCCUCGGUAAUGGCGAAUAGGACUCA [G80A C85U], the self-cleavage was determined as 0.339.

For the variant GGCCGGCAUGGUCCCAGCCUCCUCGCUGGCGCCGGCUGGGCAACAUUCCGAGGGGACCGUCCCCUCGGUAAUGGCGAACGCGACCCA [U79C G81C], the self-cleavage came to 0.189.

GGCCGGCAUGGUCCCAGCCUCCUCGCUGGCGCCGGCUGGGCAACAUUCCGAGGGGACCGUCCCCUCGGUAAUGGCGAACGAGACCCA [U79C G81A]: the self-cleavage is 0.208.

For GGCCGGCAUGGUCCCAGCCUCCUCGCUGGCGCCGGCUGGGCAACAUUCCGAGGGGACCGUCCCCUCGGUAAUGGCGAACGUGACCCA [U79C G81U], the self-cleavage came to 0.225.

For GGCCGGCAUGGUCCCAGCCUCCUCGCUGGCGCCGGCUGGGCAACAUUCCGAGGGGACCGUCCCCUCGGUAAUGGCGAACGGGAUCCA [U79C C84U], the self-cleavage came out at 0.332.

For GGCCGGCAUGGUCCCAGCCUCCUCGCUGGCGCCGGCUGGGCAACAUUCCGAGGGGACCGUCCCCUCGGUAAUGGCGAACGGGAGCCA [U79C C84G], the self-cleavage came to 0.214.

As for GGCCGGCAUGGUCCCAGCCUCCUCGCUGGCGCCGGCUGGGCAACAUUCCGAGGGGACCGUCCCCUCGGUAAUGGCGAAUAGGACCUA [G80A C86U], the self-cleavage amounted to 0.409.

Regarding GGCCGGCAUGGUCCCAGCCUCCUCGCUGGCGCCGGCUGGGCAACAUUCCGAGGGGACCGUCCCCUCGGUAAUGGCGAAUAGGACCAA [G80A C86A], the self-cleavage came to 0.532.

Regarding GGCCGGCAUGGUCCCAGCCUCCUCGCUGGCGCCGGCUGGGCAACAUUCCGAGGGGACCGUCCCCUCGGUAAUGGCGAAUAGAACCCA [G80A G82A], the self-cleavage amounted to 0.244.

Take GGCCGGCAUGGUCCCAGCCUCCUCGCUGGCGCCGGCUGGGCAACAUUCCGAGGGGACCGUCCCCUCGGUAAUGGCGAAUAGCACCCA [G80A G82C]: the self-cleavage is 0.0978.

Regarding GGCCGGCAUGGUCCCAGCCUCCUCGCUGGCGCCGGCUGGGCAACAUUCCGAGGGGACCGUCCCCUCGGUAAUGGCGAACGGGACCCA [U79C], the self-cleavage came to 0.438.

Consider GGCCGGCAUGGUCCCAGCCUCCUCGCUGGCGCCGGCUGGGCAACAUUCCGAGGGGACCGUCCCCUCGGUAAUGGCGAAGGGGACCCA [U79G], for which the self-cleavage was found to be 0.742.

For GGCCGGCAUGGUCCCAGCCUCCUCGCUGGCGCCGGCUGGGCAACAUUCCGAGGGGACCGUCCCCUCGGUAAUGGCGAAUAGGACCCC [G80A A87C], the self-cleavage was found to be 0.33.

As for GGCCGGCAUGGUCCCAGCCUCCUCGCUGGCGCCGGCUGGGCAACAUUCCGAGGGGACCGUCCCCUCGGUAAUGGCGAAUAGGACCCU [G80A A87U], the self-cleavage came to 0.441.

Regarding GGCCGGCAUGGUCCCAGCCUCCUCGCUGGCGCCGGCUGGGCAACAUUCCGAGGGGACCGUCCCCUCGGUAAUGGCGAAUAGGAUCCA [G80A C84U], the self-cleavage was 0.197.

As to GGCCGGCAUGGUCCCAGCCUCCUCGCUGGCGCCGGCUGGGCAACAUUCCGAGGGGACCGUCCCCUCGGUAAUGGCGAAAGGAACCCA [U79A G82A], the self-cleavage worked out at 0.227.

With GGCCGGCAUGGUCCCAGCCUCCUCGCUGGCGCCGGCUGGGCAACAUUCCGAGGGGACCGUCCCCUCGGUAAUGGCGAAUCGGACCCC [G80C A87C], the self-cleavage turned out to be 0.237.
